{"source": "paper PMC4519920", "origin": "cited, not measured here", "target": "hsp70 (UniProt P0DMV8)", "sequence (P0DMV8 2-641)": "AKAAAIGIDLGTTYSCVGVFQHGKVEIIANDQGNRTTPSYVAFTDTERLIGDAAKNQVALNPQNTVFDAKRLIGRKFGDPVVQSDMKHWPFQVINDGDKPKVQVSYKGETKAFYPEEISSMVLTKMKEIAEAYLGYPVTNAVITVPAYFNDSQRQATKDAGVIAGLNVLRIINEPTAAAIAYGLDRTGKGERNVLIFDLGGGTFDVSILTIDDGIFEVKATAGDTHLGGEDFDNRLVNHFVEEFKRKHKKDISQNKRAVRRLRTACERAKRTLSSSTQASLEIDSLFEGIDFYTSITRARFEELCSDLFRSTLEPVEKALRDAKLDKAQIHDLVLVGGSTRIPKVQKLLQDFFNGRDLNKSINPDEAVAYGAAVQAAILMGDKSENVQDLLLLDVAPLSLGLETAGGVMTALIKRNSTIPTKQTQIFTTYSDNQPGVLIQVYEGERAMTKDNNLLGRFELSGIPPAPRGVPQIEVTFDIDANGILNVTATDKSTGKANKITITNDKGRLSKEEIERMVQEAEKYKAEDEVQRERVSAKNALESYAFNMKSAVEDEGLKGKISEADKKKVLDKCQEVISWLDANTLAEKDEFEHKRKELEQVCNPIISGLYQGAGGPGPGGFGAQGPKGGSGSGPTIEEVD", "data": [{"substance": "Nucleoprotein NTAIL Box2 (from UniProt P35972)", "values": [{"measurement": "Kd", "result": 10, "unit": "nM"}]}]}
